Substrate in this data set: NCCC(=O)N[C@@H](Cc1cnc[nH]1)C(=O)O
Kind of data set: purified protein. The note with it: SAM.

This passage reports Km results from article PMC12615762.

B1: carnosine N-methyltransferase (CNMT, CARNMT1, C9orf41) (Homo sapiens) (protein)
chain: MQRRRRPPPPTSRLPEGCGGGGGGSEEVEVQFSAGRWGSAAAVSAAAAAATRSTEEEEERLEREHFWKIINAFRYYGTSMHERVNRTERQFRSLPANQQKLLPQFLLHLDKIRKCIDHNQEILLTIVNDCIHMFENKEYGEDGNGKIMPASTFDMDKLKSTLKQFVRDWSETGKAERDACYQPIIKEILKNFPKERWDPSKVNILVPGAGLGRLAWEIAMLGYACQGNEWSFFMLFSSNFVLNRCSEINKYKLYPWIHQFSNNRRSADQIRPIFFPDVDPHSLPPGSNFSMTAGDFQEIYSECNTWDCIATCFFIDTAHNVIDYIDTIWKILKPGGIWINLGPLLYHFENLANELSIELSYEDIKNVVLQYGFKVEVEKESVLSTYTVNDLSMMKYYYECVLFVVRKPQ
As a reminder, the Km is the substrate concentration at which the rate is half of its maximum. Regarding B1, the Km stood at 4.631 µM.
